The text below walks through data of patent US20140170144A1 (CELLMID, published 2014).

A word on the Kd: it is the concentration at which binding is half-saturated. Usually koff stands for the first-order rate constant of dissociation. As usually defined, the kon is the second-order rate constant of association.

In this assay the target is T1, recombinant human midkine (MK17) (Homo sapiens, UniProt P21741 23-143).
T1 construct: The signal is left out; It gives a molecular weight of 13.4 kDa; also called human MK; MK17 protein
T1 sequence: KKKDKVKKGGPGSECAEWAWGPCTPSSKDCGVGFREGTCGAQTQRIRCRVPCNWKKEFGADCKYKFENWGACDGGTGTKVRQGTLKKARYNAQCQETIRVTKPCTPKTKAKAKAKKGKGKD
Put plainly: SPR (Biacore), antibody amine coupled to CM-4 chip, midkine 0-20 nM as analyte. The method, then: Antibody IP-13 (2.85 mg/ml) was diluted to 5.7 μg/ml in Biacore acetate pH 4.5 buffer and amine coupled to of flow cell (FC) #3 of a CM-4 chip. Approximately 750 units were aimed to be immobilized onto Flow cells (FC) #3 of the CM-4 chip; and FC#1 was blocked using EDC/NHS followed by ethanolamine and was used as reference during the study.
Recombinant human midkine was diluted to 15 μM (1 μl of 10 mg/ml in 50 μl of HBS-EP buffer, the calculation was based on molecular weight of 13.4 kDa). Various dilutions of human midkine using HBS-EP buffer were prepared (0, 1, 2, 3, 4, 5, 10 and 20 nM).

B1: monoclonal antibody IP-13 (antibody, V domains shown)
VH: EVQLQQSGPELVKPGASVKIPCKASGYTFTDYNMGWVKQSHGKSLEWIGDINPNNGGTIYNQKFKGKATLTVDKSSSTAYMELRSLTSEDTAVYYCARWSYSNPYFDYWGQGTTLTVSS
VL: SIVMTQTPNFLLVSAGDRVTITCKASQSVSNDVSWYQQKPGQSPKLLIYYASNLYTGVPDRFTGSGYGTDFTFTISTVQAEDLAVYFCQQDYSSPWTFGGGTKLEIK
notes: also called mAb IP-13
With B1, the Ka was found to be 5e+08 M⁻¹, the Kd stood at 2.02 nM, the off-rate (koff) was 0.0028 s⁻¹ and the association rate constant (kon) stood at 1.4e+06 M⁻¹ s⁻¹.
